Entries after “also recorded” stand apart in the source; their conditions may differ.
How the values were obtained:
CD40 and CD40L = CD40 and CD40L (Homo sapiens, UniProt P25942); settings: literature; cited from earlier work
Ramos tumor cells [1] = test: SCID mouse lymphoma xenograft model, intravenous Ramos cells, survival; type: in vivo; settings: 4 mg/kg/dose i.p. two times per week, five doses, 10 mice/group
Experimental: The efficacy of the humanized CD40 antibody on survival of tumor-bearing mice was assayed in a SCID mouse lymphoma xenograft model. SCID mice (10/group) were inoculated intravenously with one million Ramos tumor cells three days prior to antibody treatment. Mice were treated with murine or humanized CD40 antibody, or an Ig control, administered intraperitoneally two times per week (4 mg/kg/dose) for a total of five doses. The mouse cages were examined daily for mortality.

human peripheral B cells = settings: Paulie et al., 1989; cited from earlier work
[2] = U.S. Pat. No. 6,838,261; cited from earlier work
CD40 = CD40 (Homo sapiens, UniProt P25942); test: Binding of variant antibodies to CD40 immobilized on microassay plates; parameters: Binding Data 1 / Binding Data 2 / Binding Data 3: unit not given here
Experimental: Antibodies constructed using these variant light and heavy chain variable domains were analyzed for binding activity. Each antibody was diluted to equivalent concentrations, and then serially diluted. The diluted antibodies were assayed for binding to CD40 immobilized on microassay plates. Affinity binding data for the variant antibodies are shown below in Table 3.

Ramos tumor cells [3] = test: SCID mouse lymphoma xenograft model, subcutaneous Ramos tumor growth; type: in vivo, SCID mice; settings: 4 mg/kg/dose i.p. 3 times per week, start 13 days after implant, 14-day study period
Experimental: The anti-tumor activity of the humanized CD40 antibody was assayed in a SCID mouse lymphoma xenograft model. Five million Ramos tumor cells were injected subcutaneously into SCID mice (10/group) thirteen days prior to starting drug treatment. Murine CD40 antibody or the humanized S2C6 was given intra-peritoneally 3 times per week (4 mg/kg/dose) with 8 or 5 doses administered. Mice were examined for tumor growth, and tumor volume was measured weekly during the 14-day study period. The results in FIG. 4 show a nearly 9-fold increase in the growth of tumors in control mice, whereas over the same time period, tumor growth in mice treated with either murine CD40 antibody or humanized S2C6 was negligible.

Chain of CD40 (P25942 21-277): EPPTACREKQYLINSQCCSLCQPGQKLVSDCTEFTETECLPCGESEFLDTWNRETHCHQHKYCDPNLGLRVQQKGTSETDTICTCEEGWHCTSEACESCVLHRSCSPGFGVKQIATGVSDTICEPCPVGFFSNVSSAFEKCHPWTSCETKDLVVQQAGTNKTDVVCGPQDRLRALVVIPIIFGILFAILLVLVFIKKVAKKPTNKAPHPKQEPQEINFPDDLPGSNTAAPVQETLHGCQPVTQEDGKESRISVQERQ
Chain of CD40 and CD40L (P25942 21-277): as above

B1: SGN-14: parent murine monoclonal CD40 antibody (donor), heavy SEQ ID NO: 1, light SEQ ID NO: 12; ATCC PTA-110 (antibody, V domains shown)
VH: EVQLQQSGPDLVKPGASVKISCKASGYSFTGYYIHWVKQSHGKSLEWIGRVIPNNGGTSYNQKFKGKAILTVDKSSSTAYMELRSLTSEDSAVYYCAREGIYWWGHGTTLTVS
VL: DVVVTQTPLSLPVSLGAQASISCRSSQSLVHSNGNTFLHWYLQKPGQSPKLLIYTVSNRFSGVPDRFSGSGSGTDFTLKISRVEAEDLGVYFCSQTTHVPWTFGGGTKLEIQR
modifications: MusMusculus
In the case of B1, the “effect on the interaction between CD40 and CD40L” value (CD40 and CD40L) is given as “can increase the interaction between CD40 and CD40L”, the “mice alive 90 days after tumor implant” value (Ramos tumor cells [1]) is given as “eight of the ten” and the “activity on human peripheral B cells (primary B cell proliferation)” value (human peripheral B cells) is given as “stimulate primary B cell proliferation in a dose dependent manner”. The “anti-neoplastic activity in vivo” value [2] was “anti-neoplastic activity in vivo”, the “Binding Data 3” value (CD40; affinity binding data, serially diluted antibody on immobilized CD40) was 1.16 and the “binding activity compared with the parent murine antibody” value (CD40; in words) was “approaching that of the parent murine antibody; also recorded: more closely approaching that of the parent murine antibody”. For the same molecule, the tumor growth (Ramos tumor cells [3]) was “negligible”.

From US20090304687A1, “METHODS OF USING CD40 BINDING AGENTS” (Seattle Genetics , Inc., priority 2005, published 2009)
